{"source": "patent US20220089743A1", "assay_in_all_cases": "cell-based or functional assay", "key": {"[1]": {"target": "HLA-DQ2.5 on IHW09023 cells loaded with 33 mer gliadin peptide (human; wheat)"}, "[2]": {"target": "HLA-DQ2.5 on IHW09023 cells loaded with BC hordein peptide (human; barley)"}, "[3]": {"target": "HLA-DQ2.5 on IHW09023 cells loaded with gamma 1 gliadin peptide (human; wheat)"}, "[4]": {"target": "HLA-DQ2.5 on IHW09023 cells loaded with gamma 2 gliadin peptide (human; wheat)"}, "[5]": {"target": "HLA-DQ2.5 on IHW09023 cells loaded with gamma 3 gliadin peptide (human; wheat)"}, "[6]": {"target": "HLA-DQ2.5 on IHW09023 cells loaded with gamma 4a gliadin peptide (human; wheat)"}, "[7]": {"target": "HLA-DQ2.5 on IHW09023 cells loaded with gamma 4d gliadin peptide (human; wheat)"}, "[8]": {"target": "HLA-DQ2.5 on IHW09023 cells loaded with omega1/2 gliadin peptide (human; wheat)"}}}
{"binder": "DQN034425 (antibody, V domains shown) VH: QVQLVESGGGVVQPGRSLRLSCAASGFTFSSSYWMCWVRQAPGQGLEWMGCVYGGSDTTYYASWTKGRFTISRDNSKNTLYLQMNSLRAEDTAVYYCARDPLNYYYYGELNLWGQGTLVTVSS VL: DIQMTQSPSSLSASVGDRVTITCQATENIYSGLAWYQQKPGKAPKLLIYYVSTLASGIPARFSGSGSGTDFTLTISSLEPEDFAVYYCQTYHDISNVTFGQGTKVEIK", "values": [{"measurement": "IC50, α1a gliadin TCR, 250 nM 33mer gliadin", "setting": "[1]", "result": 0.0106, "unit": "µg/mL"}, {"measurement": "IC50, α1b gliadin TCR, 250 nM 33mer gliadin", "setting": "[1]", "result": 0.0464, "unit": "µg/mL"}, {"measurement": "IC50, α2 gliadin TCR, 250 nM 33mer gliadin", "setting": "[1]", "result": 0.00175, "unit": "µg/mL"}, {"measurement": "IC50, BC hordein TCR, 250 nM BC hordein", "setting": "[2]", "result": "> 20", "unit": "µg/mL"}, {"measurement": "IC50, γ1 gliadin TCR, 250 nM γ1 gliadin", "setting": "[3]", "result": "> 20", "unit": "µg/mL"}, {"measurement": "IC50, γ2 gliadin TCR, 250 nM γ2 gliadin", "setting": "[4]", "result": "> 20", "unit": "µg/mL"}, {"measurement": "IC50, γ3 gliadin TCR, 100 µM γ3 gliadin", "setting": "[5]", "result": 3.1, "unit": "µg/mL"}, {"measurement": "IC50, γ4a gliadin TCR, 25 µM γ4a gliadin", "setting": "[6]", "result": "> 20", "unit": "µg/mL"}, {"measurement": "IC50, γ4d gliadin TCR, 100 µM γ4d gliadin", "setting": "[7]", "result": "> 20", "unit": "µg/mL"}, {"measurement": "IC50, ω1 gliadin TCR, 25 µM ω1/2 gliadin", "setting": "[8]", "result": 0.00312, "unit": "µg/mL"}, {"measurement": "IC50, ω2 gliadin TCR, 250 nM ω1/2 gliadin", "setting": "[8]", "result": "> 0.5", "unit": "µg/mL"}]}
